In patent publication US20180171024A1:
Each block holds one substance with its values, some of them ahead of it.

What was measured:
[1] = molecular target: HLA-A2/PAP 112-120 complex on T2 cells (human); test: flow cytometry, T2 cells loaded with 10^-4 M peptide
[2] = molecular target: HLA-A2/MAGE-A9 223-231 complex on T2 cells (human); test: as above
[3] = molecular target: HLA-A2/MAGE-A4 230-239 complex on cells (human); test: as above
[4] = molecular target: HLA-A2 on other WT1 negative HLA-A2+ cells (other than 501, A498 and SKMEL; members not named); test: flow cytometry on U266 cells (WT1 mRNA -)
[5] = molecular target: HLA-A2/WT1 126-134 complex on T2 cells (human); test: flow cytometry, T2 cells loaded with 10^-4 M WT1 peptide
[6] = molecular target: Unloaded T2 (Homo sapiens); test: flow cytometry, unloaded T2 cells; design: reference not given here
[7] = molecular target: HLA-A2 on HLA-A2+/WT1+ BV173 cells (WT1 mRNA positive; WT1 126-134 peptide not detected by mass spectrometry of eluted HLA peptides); test: flow cytometry on BV173 cells (WT1 mRNA +)
[8] = molecular target: HLA-A2 on HLA-A2+/WT1+ SET2 cells (WT1 mRNA positive; WT1 126-134 peptide not detected by mass spectrometry of eluted HLA peptides); test: flow cytometry on SET-2 cells (WT1 mRNA +)
[9] = molecular target: HLA-A2/WT1 126-134 complex on T2 cells (human); test: flow cytometry, T2 cells loaded with WT1 1x10e-4M in DMSO
[10] = molecular target: HLA-A2/WT1 126-134 complex on T2 cells (human); test: flow cytometry, T2 cells loaded with WT1 peptide 1x10e-5M
[11] = molecular target: HLA-A2/WT1 126-134 complex on T2 cells (human); test: flow cytometry, T2 cells loaded with WT1 peptide 1x10e-4M
[12] = molecular target: HLA-A2 on other WT1 negative HLA-A2+ cells (other than 501, A498 and SKMEL; members not named); test: flow cytometry on IM-9 cells (WT1 mRNA -)
[13] = molecular target: HLA-A2 on other WT1 negative HLA-A2+ cells (other than 501, A498 and SKMEL; members not named); test: flow cytometry on JVM-2 cells (WT1 mRNA -)
[14] = molecular target: HLA-A2/WT1-S6 on T2 cells (human); test: flow cytometry, peptide-loaded T2 cells (10^-4-10^-5 M)
[15] = molecular target: HLA-A2/WT1-S22 on T2 cells (human); test: as above
[16] = molecular target: HLA-A2/WT1-S11 on T2 cells (human); test: as above
[17] = molecular target: HLA-A2/WT1-S16 on T2 cells (human); test: as above
[18] = molecular target: HLA-A2/WT1-S10 on T2 cells (human); test: as above
[19] = molecular target: HLA-A2/WT1-S13 on T2 cells (human); test: as above
[20] = molecular target: HLA-A2/WT1-S7 on T2 cells (human); test: as above
[21] = molecular target: HLA-A2 on HLA-A2+ cells that do not express WT1 (tumor cell lines, normal primary cells); test: flow cytometry on SKMEL-5 melanoma cells (WT1 mRNA -)
[22] = molecular target: HLA-A2 on HLA-A2+ cells that do not express WT1 (tumor cell lines, normal primary cells); test: flow cytometry on 501A melanoma cells (WT1 mRNA -)
[23] = molecular target: HLA-A2 on HLA-A2+ cells that do not express WT1 (tumor cell lines, normal primary cells); test: flow cytometry on A498 cells (WT1 mRNA -)
P68 … (Homo sapiens) = test: flow cytometry, T2 cells loaded with 10^-4 M peptide; design: reference not given here
[24] = molecular target: HLA-A2/Tyrosinase369-377 complex on cells (human); test: as above; design: reference not given here
[25] = molecular target: single-chain recombinant HLA-A2/WT1 126-134 complex (human); test: SPR (ProteOn), biotinylated scHLA-A2/WT1 on NeutrAvidin, Fab as analyte; faster dissociation told in words

- MFI [1]: 1.1
- MFI [2]: 1
- MFI [3]: 1.1
- MFI [4]: 1.9
- MFI [5]: 18
- MFI [6]: 1
- MFI [7]: 8.1
- MFI [8]: 26.3
- MFI [9]: 17.9
- MFI [10]: 1.6
- MFI [11]: 17.9
- MFI [12]: 1.2
- MFI [13]: 1
- MFI [14]: 5
- MFI [15]: 1.1
- MFI [16]: 1.1
- MFI [17]: 1.1
- MFI [18]: 1.4
- MFI [19]: 1.1
- MFI [20]: 3.1
- MFI [21]: 4.3
- MFI [22]: 10.7
- MFI [23]: 5.2
- MFI (P68 … (Homo sapiens)): 1
- MFI [24]: 1
Substance: ESK1 TCR-like antibody (IgG)

- Kd [25]: 200 nM
Substance: ESK1 TCRL Fab
